Consider two molecules from US20070179113A1, “GM-CSF gene therapy for Crohn's disease using an improved regulated expression system” (Schering Aktiengesellachaft, priority 2005, published 2007).

The subject of one data set is DSS-induced colitis. Description: DSS-induced colitis model (7% DSS), proof of concept with pCMV-GMCSF plasmid DNA. Format: in vivo, mice. Conditions: plasmid single injection day 0 + EP, drugs and protein daily. On the procedure:
Two concentrations of pCMV-mGMCSF were tested side by side with a control plasmid (pNull) and two mGM-CSF protein formulations, non-pegylated and pegylated in the DSS-induced colitis model (N=10/group). A single plasmid DNA injection was administered at day 0 followed by electroporation. Murine GM-CSF protein was injected s.c. daily. Disease was induced with 7% DSS in the drinking water and clinical scores (DIA) were recorded daily.
(§1) Likewise, the DSS-induced mouse colitis model is useful for evaluating therapies for UC, IBD and CD. Disease is induced in mice by daily administration of 5% or 7% dextran sodium sulfate (DSS) in the drinking water over 8 days. Disease progression is monitored by the Daily Activity Index (DAI), a cumulative index of: weight loss, stool consistency, and rectal bleeding, which mimics the symptoms of UC, IBD and/or CD.
vii. […] In this study the efficacy of pGMCSF plasmid DNA was evaluated side by side with Mesopram, Metronidazole, non-pegylated or pegylated mGM-CSF. The disease was induced using 7% DSS, administered daily in the drinking water. Mesopram, Metronidazole and mGM-CSF protein were administered daily, using the same dosing regimen as described for the validation study. pGMCSF plasmid DNA was injected at day 0 followed by electroporation. […]

The nature of data set [1]: mGM-CSF concentration in sera at day 8 of the DSS colitis study. As to conditions: final day of DSS study.
Method: At day 8, the final day of the study, mGM-CSF concentrations were measured in sera of all mice.
The test system of data set [2] is DSS-induced colitis in Balb/C mice. The data set can be described thus: DSS-induced colitis model (5% DSS), validation, Disease Activity Index. Format: in vivo. Conditions: daily treatment, Mesopram/Metronidazole 50 mg/kg IP, mGM-CSF 5 μg non-pegylated, 5 or 10 μg pegylated. As for the experimental part: Disease was induced in BalbC mice (N=10/group) by DSS (5%) applied daily in the drinking water. Mesopram, Metronidazole, or yeast expressed non-pegylated respectively pegylated mGM-CSF, was administered daily over a period of 8 days. Clinical scores (Daily Activity Index (DAI), a cumulative index of: weight loss, stool consistency, and rectal bleeding) were recorded daily.
as §1
vi. DSS-induced colitis model. Prior to the gene delivery study the model was established and validated in Balb/C mice using non-pegylated and pegylated mGM-CSF protein. Disease was induced in Balb/C mice with 5% dextran sodium sulfate (DSS), provided in the drinking water every day over a period of 8 days. As the main endpoint, the Disease Activity Index (DAI, a cumulative index of: weight loss, stool consistency, and rectal bleeding) was recorded daily. […]

Data set [3] can be described thus: Pharmacokinetic study of mGM-CSF protein formulations, serum mGM-CSF ELISA. Format: in vivo, BalbC mice. Conditions: i.m. injection. As for the experimental part: FIG. 40 illustrates the use of ELISA for detection of murine GM-CSF. BalbC mice (n=5/group) were injected i.m. with 5 or 10 μg non-pegylated, or 5 μg pegylated mGM-CSF. Mice received either a single injection or 4 daily injections. Serum was obtained 1, 3, 6, and 12 hours following the single injection or the fourth injection. mGM-CSF levels in serum were measured using the ELISA from R&D (Minneapolis).
i. GM-CSF ELISA validation. A commercially available ELISA (R&D, Minneapolis) was validated for the detection of murine (m)GM-CSF in serum. In a pharmacokinetic study two formulations of mGM-CSF protein, non-pegylated or pegylated, were injectedi.m. and serum samples were assayed for mGM-CSF. […] The levels of non-pegylated mGM-CSF dropped rapidly within 3 hours following administration, whereas pegylated mGM-CSF was detectable over a 12 hour period.
In general terms: An ELISA detects its analyte on a solid surface through an enzyme-linked reagent.

B1: non-pegylated mGM-CSF: yeast expressed non-pegylated murine GM-CSF protein (protein, UniProt P01587 18-141, looked up)
Granulocyte-macrophage …: APTRSPITVTRPWKHVEAIKEALNLLDDMPVTLNEEVEVVSNEFSFKKLTCVQTRLKIFEQGLRGNFTKLKGALNMTASYYQTYCPPTPETDCETQVTTYADFIDSLKTFLTDIPFECKKPGQK
On to B1, for which the “disease scores (DAI)” value in the data set with DSS-induced colitis was “efficacious”. For the same molecule, the “GM-CSF in sera at day 8” value in data set [1] is “could be measured”. In data set [2], the DAI score entry was “significantly reduced”. Moreover, in data set [3], the “time within which serum levels dropped rapidly following administration” value is no more than 3 h.

B2: pegylated mGM-CSF: pegylated murine GM-CSF protein (conjugate, UniProt P01587 18-141, looked up)
Granulocyte-macrophage …: APTRSPITVTRPWKHVEAIKEALNLLDDMPVTLNEEVEVVSNEFSFKKLTCVQTRLKIFEQGLRGNFTKLKGALNMTASYYQTYCPPTPETDCETQVTTYADFIDSLKTFLTDIPFECKKPGQK
modifications: PEG
notes: pegylated murine GM-CSF protein
B2: the “disease scores (DAI)” value in the data set with DSS-induced colitis was “efficacious”. Further, in data set [2], the DAI score result was “significantly reduced”. The “period over which detectable in serum” value in data set [3] turned out to be 12 h.
